Here are results for 20 substances from patent US20220056091A1.

Chain of His-tagged human IL-18BP (human) (O95998 31-194): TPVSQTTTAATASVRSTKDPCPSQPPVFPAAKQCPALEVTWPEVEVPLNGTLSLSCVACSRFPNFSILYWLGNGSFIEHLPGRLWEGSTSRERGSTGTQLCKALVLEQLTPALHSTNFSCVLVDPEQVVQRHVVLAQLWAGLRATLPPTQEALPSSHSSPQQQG
Chain of IL-18 polypeptide of SEQ ID NO: 1 (native sequence, human IL-18 37-193) (Q14116 37-193): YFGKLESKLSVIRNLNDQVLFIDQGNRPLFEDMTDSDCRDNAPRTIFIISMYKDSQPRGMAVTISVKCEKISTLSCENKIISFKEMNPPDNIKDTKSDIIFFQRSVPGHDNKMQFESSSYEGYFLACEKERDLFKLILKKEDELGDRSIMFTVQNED

The assay concerns the target His-tagged human IL-18BP (human) (UniProt O95998). Put plainly: alphaLISA of free IL-18BP.
Take “Modified IL-18 polypeptide of SEQ ID NO: 9 (K53A, S55A) (from UniProt Q14116 37-193) (ligand)”: the Kd is 500 nM.

As to “Modified IL-18 polypeptide of SEQ ID NO: 71 (E6K, C38S, K53A) (from UniProt Q14116 37-193) (ligand)”, the dissociation constant (Kd) is 50.2 nM.

In turn, “Modified IL-18 polypeptide of SEQ ID NO: 15 (C38S, C68S, C76S, C127S) (from UniProt Q14116 37-193) (ligand)” showed a Kd of 0.03 nM.

“Modified IL-18 polypeptide of SEQ ID NO: 4 (K53A) (from UniProt Q14116 37-193) (ligand)” showed a Kd of 514 nM.

Turning to “Modified IL-18 polypeptide of SEQ ID NO: 20 (E06K, T63A) (from UniProt Q14116 37-193) (ligand)”, the Kd was 0.83 nM.

As to “Modified IL-18 polypeptide of SEQ ID NO: 19 (T63A) (from UniProt Q14116 37-193) (ligand)”, the dissociation constant (Kd) is 2.59 nM.

Consider “Modified IL-18 polypeptide of SEQ ID NO: 8 (E06K, S55A) (from UniProt Q14116 37-193) (ligand)”, for which the equilibrium dissociation constant (Kd) was determined as 12.3 nM.

As to “IL-18 polypeptide of SEQ ID NO: 1 (native sequence, human IL-18 37-193) (from UniProt Q14116 37-193) (ligand)”, the Kd came to 0.67 nM.

In turn, “Modified IL-18 polypeptide of SEQ ID NO: 22 (E06K, K53A, C38S, C68S, C76S, C127S, K70C) (from UniProt Q14116 37-193) (ligand)” gave a Kd of 446 nM.

The substance “Modified IL-18 polypeptide of SEQ ID NO: 10 (E06K, K53A, S55A, T63A) (from UniProt Q14116 37-193) (ligand)” gave a Kd of 822 nM.

In turn, “Modified IL-18 polypeptide of SEQ ID NO: 18 (E06K, K53A, T63A) (from UniProt Q14116 37-193) (ligand)” yielded a dissociation constant Kd of 340 nM.

Turning to “Modified IL-18 polypeptide of SEQ ID NO: 6 (E06K) (from UniProt Q14116 37-193) (ligand)”, the Kd came out at 0.13 nM.

On to “Modified IL-18 polypeptide of SEQ ID NO: 23 (K53A, T63A, C38S, C68S, C76S, C127S, K70C) (from UniProt Q14116 37-193) (ligand)”, for which the dissociation constant Kd amounted to 913 nM.

“Modified IL-18 polypeptide of SEQ ID NO: 7 (E06K, K53A) (from UniProt Q14116 37-193) (ligand)”: the Kd amounted to 130 nM.

Substance “Modified IL-18 polypeptide of SEQ ID NO: 70 (E6K, K53A, C38S, C76S, C127S) (from UniProt Q14116 37-193) (ligand)” yielded a dissociation constant (Kd) of 436 nM.

On to “Modified IL-18 polypeptide of SEQ ID NO: 5 (S55A) (from UniProt Q14116 37-193) (ligand)”, for which the equilibrium dissociation constant (Kd) was determined as 10.7 nM.

As for “Modified IL-18 polypeptide of SEQ ID NO: 71 with a 30 kDa PEG attached at residue C68 (E6K, C38S, K53A, C68-30kDPEG) (from UniProt Q14116 37-193) (ligand)”, the equilibrium dissociation constant (Kd) was 59.1 nM.

In the case of “Modified IL-18 polypeptide of SEQ ID NO: 3 (Y01G, F02A, E06K, M51G, K53A, D54A, S55A, T63A) (from UniProt Q14116 37-193) (ligand)”, the Kd is 969 nM.

Substance “Modified IL-18 polypeptide of SEQ ID NO: 21 (K53A, T63A) (from UniProt Q14116 37-193) (ligand)” gave a dissociation constant Kd of 198 nM.

With “Modified IL-18 polypeptide of SEQ ID NO: 16 (C38S, C68S, C76S, C127S, K70C) (from UniProt Q14116 37-193) (ligand)”, the Kd is 0.21 nM.
